# Test results: patent publication US20230002494A1 (SANYOU BIOPHARMACEUTICALS, published 2023)
# T1: B7-H2 protein, Sino Biological 11559-H08H (UniProt O75144 19-258)
# T1 construct: Bought protein
# T1 sequence (looked up): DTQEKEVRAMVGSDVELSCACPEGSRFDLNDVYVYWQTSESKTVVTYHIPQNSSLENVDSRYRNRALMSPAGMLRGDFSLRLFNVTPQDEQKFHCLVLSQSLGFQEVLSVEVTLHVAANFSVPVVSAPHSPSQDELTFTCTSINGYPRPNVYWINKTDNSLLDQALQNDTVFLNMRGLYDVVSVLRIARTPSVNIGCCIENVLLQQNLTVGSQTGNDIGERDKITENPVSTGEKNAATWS
# T2: B7-H3 protein, Sino Biological 11188-H08H (UniProt Q5ZPR3 29-461)
# T2 construct: Bought protein
# T2 sequence (looked up): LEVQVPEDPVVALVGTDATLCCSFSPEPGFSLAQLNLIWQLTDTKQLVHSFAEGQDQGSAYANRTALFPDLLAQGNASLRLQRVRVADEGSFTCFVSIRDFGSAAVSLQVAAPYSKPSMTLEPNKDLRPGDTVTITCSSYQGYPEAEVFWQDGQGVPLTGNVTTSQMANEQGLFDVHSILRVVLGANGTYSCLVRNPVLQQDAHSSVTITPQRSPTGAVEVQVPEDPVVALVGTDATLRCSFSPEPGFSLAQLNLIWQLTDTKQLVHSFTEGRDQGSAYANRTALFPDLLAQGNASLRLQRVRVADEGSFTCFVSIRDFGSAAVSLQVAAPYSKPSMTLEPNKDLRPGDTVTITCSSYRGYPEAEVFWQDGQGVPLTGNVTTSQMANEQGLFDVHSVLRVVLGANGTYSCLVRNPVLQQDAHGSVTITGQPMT
# T3: B7-H4 protein, Sino Biological 10738-H08H (UniProt Q7Z7D3 25-258)
# T3 construct: Bought protein
# T3 sequence (looked up): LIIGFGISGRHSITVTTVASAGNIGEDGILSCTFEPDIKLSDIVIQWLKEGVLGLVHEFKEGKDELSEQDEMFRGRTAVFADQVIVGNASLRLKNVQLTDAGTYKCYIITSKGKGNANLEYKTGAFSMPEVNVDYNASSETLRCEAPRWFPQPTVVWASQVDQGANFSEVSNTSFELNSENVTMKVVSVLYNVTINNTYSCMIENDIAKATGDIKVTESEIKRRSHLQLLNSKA
# T4: B7-DC protein, Sino Biological 10292-H08H-B (UniProt Q9BQ51 20-219)
# T4 construct: Bought protein
# T4 sequence (looked up): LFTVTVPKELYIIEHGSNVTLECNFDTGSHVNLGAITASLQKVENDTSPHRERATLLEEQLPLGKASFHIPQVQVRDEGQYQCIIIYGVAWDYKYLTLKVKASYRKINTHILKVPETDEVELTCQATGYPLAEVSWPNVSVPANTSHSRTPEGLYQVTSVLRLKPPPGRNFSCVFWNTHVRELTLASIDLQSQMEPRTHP
# B1: NB22D-21 chimeric VHH-Fc antibody (Fc fusion)
# chain: EVQVQESGGGLVQAGGSLRLSCAHSRTDSNINGMHWYRQAPGKQRDWVGTIFIDGNTIVTDSVKGRFTISRDNAKNTLYLQMNTLKPEDTAVYFCAADVSGYGRAWGQGTQVTVSS
# notes: also called parental antibody NB22D-21; parent molecule; not shown: human IgG1 Fc fragment, its N-terminus linked to the C-terminus of the VHH
# Key:
# [1] = molecular target: T5, mouse PD-L1 (full-length, on CHO-s cells) (mouse, UniProt Q9EP73 19-290); test: FACS, mouse PD-L1-CHO cells
# T5 construct: whole, on cells; also called mouse PD-L1-CHO
# [2] = molecular target: T6, human PD-L1 (full-length, on cells) (human, UniProt Q9NZQ7 19-290); test: FACS, human PD-L1-CHO cells
# T6 construct: whole, on cells; Expressed on CHO-s cells; also called human PD-L1-CHO; PD-L1-CHO
# [3] = molecular target: T7, rhesus monkey PD-L1 (full-length, on CHO-s cells) (rhesus monkey, UniProt F6VEW6 19-290); test: FACS, monkey PD-L1-CHO cells
# T7 construct: whole, on cells; also called monkey PD-L1-CHO
# Description: In order to evaluate the cross-reactivity of the VHH-Fc candidate antibodies to monkey PD-L1 and mouse PD-L1, an FACS method is used to detect the binding activity thereof to the mouse and rhesus monkey PD-L1 protein on cells.
# [4] = molecular target: T6, human PD-L1 (full-length, on cells); test: FACS on human PD-L1-CHO cells, PE anti-human IgG Fc
# Description: 1) collecting the cultured human PD-L1-CHO cells, centrifuging the collected cells at 300 g to remove the supernatant, resuspending the cells in a formulated FACS buffer and counting the cells, and adjusting the density of the cell suspension to 2×10⁶ cells/mL;
# [5] = molecular target: T1, B7-H2 protein, Sino Biological …; test: ELISA, plate coated with 2 µg/mL protein, anti-human IgG Fc-HRP, OD450; parameters: concentration or dose not given beside the values
# Experimental: (§1) The specific method is as follows:
# (§2) one day prior to the experiment, 30 μL of protein diluents such as B7-H1 (i.e., PDL1), B7-H2, B7-H3, B7-H4 and B7-DC (the above-mentioned proteins are all purchased from Sino Biological Co., Ltd., with Cat. Nos. 10084-HNAH, 11559-H08H, 11188-H08H, 10738-H08H and 10292-H08H-B, respectively) are added to an ELISA plate at a final concentration of 2 μg/mL, and incubated at 4° C. overnight; the next day, the ELISA plate is rinsed 3 times with PBST, then blocked with 150 μL of 5% PBSM, and incubated at room temperature for 2 hours; the ELISA plate is rinsed 3 times with PBST again, and then 30 μL of candidate antibody and control antibody diluents are added thereto, and the plate is incubated at room temperature for 1 hour; the plate is rinsed 3 times with PBST, and an anti-human IgG Fc-HRP second antibody diluted at 1:7000 is added thereto (30 μL/well), and the plate is incubated at room temperature for 30 minutes; the plate is rinsed 6 times with PBST, then TMB is added thereto for color development, and finally, 2M HCl is added to stop the reaction.
# [6] = molecular target: T2, B7-H3 protein, Sino Biological …; test: as above; parameters: concentration or dose not given beside the values
# Experimental: as §1, §2
# [7] = molecular target: T3, B7-H4 protein, Sino Biological …; test: as above; parameters: concentration or dose not given beside the values
# Experimental: as §1, §2
# [8] = molecular target: T4, B7-DC protein, Sino Biological …; test: as above; parameters: concentration or dose not given beside the values
# Experimental: as §1, §2
# [9] = molecular target: T6, human PD-L1 (full-length, on cells); test: FACS competition, human PD-L1-CHO cells, competitor biotin-labeled CD80 1 µg/mL
# [10] = molecular target: T6, human PD-L1 (full-length, on cells); test: FACS competition, human PD-L1-CHO cells, competitor biotin-labeled PD-1-Fc 1 µg/mL
# T6 sequence (Q9NZQ7 19-290): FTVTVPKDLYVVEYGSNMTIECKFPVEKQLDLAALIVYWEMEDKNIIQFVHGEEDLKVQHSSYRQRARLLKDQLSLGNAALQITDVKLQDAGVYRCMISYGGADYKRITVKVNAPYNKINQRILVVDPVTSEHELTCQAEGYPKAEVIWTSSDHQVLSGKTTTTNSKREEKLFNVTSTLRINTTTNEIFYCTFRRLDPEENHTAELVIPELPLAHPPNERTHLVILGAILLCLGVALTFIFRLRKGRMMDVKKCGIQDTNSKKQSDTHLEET
# T5 sequence (Q9EP73 19-290): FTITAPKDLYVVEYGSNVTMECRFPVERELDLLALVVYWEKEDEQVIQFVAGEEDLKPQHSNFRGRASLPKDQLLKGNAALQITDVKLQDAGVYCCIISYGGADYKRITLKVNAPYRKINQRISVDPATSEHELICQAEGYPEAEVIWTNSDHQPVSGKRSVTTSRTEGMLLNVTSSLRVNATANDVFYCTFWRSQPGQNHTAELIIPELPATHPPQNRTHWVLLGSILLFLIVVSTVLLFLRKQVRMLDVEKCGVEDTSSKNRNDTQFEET
binder,measurement,setting,value
B1,binding result,[1],binds
same,EC50,[2],0.39 µg/mL
same,EC50,[3],0.25 µg/mL
same,EC50 (read off the curve),[4],~0.1 µg/mL
same,binding result,[5],no binding (tested: 10.00 (no unit on the sheet))
same,binding result,[6],no binding (tested: 10.00 (no unit on the sheet))
same,binding result,[7],no binding (tested: 10.00 (no unit on the sheet))
same,binding result,[8],no binding (tested: 10.00 (no unit on the sheet))
same,IC50,[9],0.708 µg/mL
same,IC50,[10],0.41 µg/mL
